Measured values as given in article PMC10752894, “Structural basis for DNA proofreading” (Nature Communications, 2023).

Key:
[1] = target: the molecule itself; test: cryo-EM structure; Complex ONE: 2 μM WT Polγ holoenzyme with the DNA20*A/DNA20_TS scaffold (phosphorothioate mismatched primer), 10 mM Tris-HCl pH 7.9, 100 mM NaCl, 10 mM DTT, 2 mM MgCl2. Complex THREE: the same with the hydrolyzable DNA20A primer. Gives Structures I, II, VII, VIII, IX
[2] = target: Polγ holoenzyme, cryo-EM Complex ONE (Homo sapiens, UniProt P54098;Q9UHN1 26-1239;26-485); test: cryo-EM; Complex ONE class 1; EMSA: 40 mM Tris-HCl pH 7.9, 60 mM NaCl, 10 mM MgCl2, 5% glycerol, 20 mM 2-mercaptoethanol, 0.1 mg/ml BSA, 150 nM Cy3 scaffold, 10 min room temperature; 0.5% agarose, 0.5X TBE, 4 °C; conditions: protein: recombinant; tags: N-terminal His (both subunits); copies: 1;2; primer-template, 6 nt 5' template overhang, 3'-terminal A mismatched with G
Chain of Polγ holoenzyme, cryo-EM Complex ONE (P54098 26-1239, one chain of several): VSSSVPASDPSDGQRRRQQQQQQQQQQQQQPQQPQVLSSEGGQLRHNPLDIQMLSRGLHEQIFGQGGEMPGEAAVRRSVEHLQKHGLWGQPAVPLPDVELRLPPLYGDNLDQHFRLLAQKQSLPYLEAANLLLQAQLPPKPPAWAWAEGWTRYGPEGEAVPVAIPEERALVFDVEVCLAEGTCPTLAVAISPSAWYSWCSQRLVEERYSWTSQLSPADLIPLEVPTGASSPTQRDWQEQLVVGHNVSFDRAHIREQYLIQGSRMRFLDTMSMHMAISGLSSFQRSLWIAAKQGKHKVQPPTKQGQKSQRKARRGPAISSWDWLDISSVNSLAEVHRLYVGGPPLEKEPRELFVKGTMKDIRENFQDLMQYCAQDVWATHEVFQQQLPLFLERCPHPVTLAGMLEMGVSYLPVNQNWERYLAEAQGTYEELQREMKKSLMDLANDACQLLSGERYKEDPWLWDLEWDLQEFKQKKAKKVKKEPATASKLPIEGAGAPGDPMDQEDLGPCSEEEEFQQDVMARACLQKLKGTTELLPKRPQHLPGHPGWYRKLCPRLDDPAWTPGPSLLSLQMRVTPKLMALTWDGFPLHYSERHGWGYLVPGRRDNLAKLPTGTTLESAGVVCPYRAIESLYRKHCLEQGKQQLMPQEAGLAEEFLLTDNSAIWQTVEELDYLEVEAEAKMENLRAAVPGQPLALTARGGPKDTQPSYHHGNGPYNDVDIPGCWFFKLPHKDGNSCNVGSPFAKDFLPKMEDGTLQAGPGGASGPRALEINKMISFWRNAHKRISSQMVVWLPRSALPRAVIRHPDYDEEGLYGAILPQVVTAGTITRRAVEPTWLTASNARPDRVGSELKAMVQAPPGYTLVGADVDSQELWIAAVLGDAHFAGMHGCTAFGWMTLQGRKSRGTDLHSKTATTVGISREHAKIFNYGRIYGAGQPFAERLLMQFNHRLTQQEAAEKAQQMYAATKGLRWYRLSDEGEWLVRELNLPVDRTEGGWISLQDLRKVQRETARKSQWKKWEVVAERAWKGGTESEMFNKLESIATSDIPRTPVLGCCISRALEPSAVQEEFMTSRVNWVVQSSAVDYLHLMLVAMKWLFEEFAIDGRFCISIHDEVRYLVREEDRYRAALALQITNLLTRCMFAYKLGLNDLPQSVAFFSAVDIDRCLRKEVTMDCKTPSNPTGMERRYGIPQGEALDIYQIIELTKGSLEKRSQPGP

| Binder | binding result [1] | binding result [2] |
| --- | --- | --- |
| human mitochondrial DNA polymerase Gamma accessory subunit Polγ_B (residues 26–485) (natural protein, UniProt Q9UHN1 26-485, looked up, human DNA polymerase gamma accessory subunit Polγ_B, residues 26-485; It is a homodimer in the holoenzyme, with a proximal copy Polγ_B1 and a distal copy Polγ_B2; also called Polγ_B homodimer; Polγ_B1; source: E. coli BL21-CodonPlus (DE3)-RIPL, purified (Ni-NTA, HiTrap heparin)) DAGQPELLTERSSPKGGHVKSHAELEGNGEHPEAPGSGEGSEALLEICQRRHFLSGSKQQLSRDSLLSGCHPGFGPLGVELRKNLAAEWWTSVVVFREQVFPVDALHHKPGPLLPGDSAFRLVSAETLREILQDKELSKEQLVAFLENVLKTSGKLRENLLHGALEHYVNCLDLVNKRLPYGLAQIGVCFHPVFDTKQIRNGVKSIGEKTEASLVWFTPPRTSNQWLDFWLRHRLQWWRKFAMSPSNFSSSDCQDEEGRKGNKLYYNFPWGKELIETLWNLGDHELLHMYPGNVSKLHGRDGRKNVVPCVLSVNGDLDRGMLAYLYDSFQLTENSFTRKKNLHRKVLKLHPCLAPIKVALDVGRGPTLELRQVCQGLFNELLENGISVWPGYLETMQSSLEQLYSKYDEMSILFTVLVTETTLENGLIHLRSRDTTMKEMMHISKLKDFLIKYISSAKNV | binds |  |
| DNA20sA/DNA20TS (Complex ONE) (dsDNA, phosphorothioate before the 3'-terminal A of the primer (racemic)) DNA 1: GAAGACAGTCTGCGGCGCGA DNA 2: ACACACGCGCGCCGCAGACTGTCTTC |  | binds |
